Test results published in patent US11319552B2, “Methods for improving transformation frequency” (SYNGENTA PARTICIPATIONS AG, priority 2016, dated 2022).

What was measured:
[1] = test system: immature embryos; assay: Second selection experiment, transformation frequency with 40 mg/L ammonium glufosinate or 5 mg/L bialaphos; format: cell-based, maize
Experimental: 10 mg/L to 40 mg/L of ammonium glufosinate all had survivor transgenic plant candidates for the binary vector comprising PAT variant type 3b. […] A second experiment was performed using 40 mg/L ammonium glufosinate, or using the GS inhibitor bialaphos at 5 mg/L. For this experiment, following transformation the immature embryos were selected, plants were regenerated and rooted, and transgenic plants were identified so that transformation frequency could be calculated.

[2] = test system: immature embryos; assay: Kill curve, ammonium glufosinate concentration for selection, survival percentage; format: cell-based, maize; settings: for % Survival: plants that rooted over immature embryos transformed
Experimental: The expression cassette of PAT variant type 3b (SEQ ID NO: 13) was introduced into a binary vector, now referred to as 23419. Binary vector 18857 (described in Table 2), which expresses cPAT-09, was used as a control. […] For vector 23419, 75-86 immature embryos were transformed using Agrobacteria similar to the method described in Example 4. Selection was performed using 10-80 mg/L of ammonium glufosinate (Ignite®). Following selection, plantlets were regenerated and then transferred to rooting media. The survival percentage (%) is shown as the number of plants that rooted over the number of immature embryos initially transformed.

B1: cPAT-09: control PAT DNA sequence codon optimized to Arabidopsis thaliana (SEQ ID NO: 21); tested here in binary vector 18857 (nucleic acid)
DNA: ATGTCTCCGGAGAGGAGACCAGTTGAGATTAGGCCAGCTACAGCAGCTGATATGGCCGCGGTTTGTGATATCGTTAACCATTACATTGAGACGTCTACAGTGAACTTTAGGACAGAGCCACAAACACCACAAGAGTGGATTGATGATCTAGAGAGGTTGCAAGATAGATACCCTTGGTTGGTTGCTGAGGTTGAGGGTGTTGTGGCTGGTATTGCTTACGCTGGGCCCTGGAAGGCTAGGAACGCTTACGATTGGACAGTTGAGAGTACTGTTTACGTGTCACATAGGCATCAAAGGTTGGGCCTAGGCTCCACATTGTACACACATTTGCTTAAGTCTATGGAGGCGCAAGGTTTTAAGTCAGTGGTTGCTGTTATAGGCCTTCCAAACGATCCATCTGTTAGGTTGCATGAGGCTCTAGGATACACAGCGCGGGGTACACTGCGCGCAGCTGGATACAAGCATGGTGGATGGCATGATGTTGGTTTTTGGCAAAGGGATTTTGAGTTGCCAGCTCCTCCAAGGCCAGTGAGGCCAGTTACCCAGATCTGA
modifications: derived from Streptomyces viridochromogenes
[1]; 5 mg/L Bialaphos
  Total # Events: 7
  Transformation frequency % (TF): 0.875%
[1]; 40 mg/L ammonium glufosinate
  Total # Events: 5
  Transformation frequency % (TF): 0.625%
[2]; 10 mg/L ammonium glufosinate
  % Survival: 1.3%
[2]; 20 mg/L ammonium glufosinate
  % Survival: 1.3%
[2]; 40 mg/L ammonium glufosinate
  survival of selection (in words): did not survive selection
  % Survival: 0%
[2]; 80 mg/L ammonium glufosinate
  % Survival: 0%
